Test results: patent publication US20240218057A1 (ROCKEFELLER UNIVERSITY, published 2024)
Residue numbers refer to the chain shown, from its start.

Target: T1, SARS-COV-2 RBD (SARS-COV-2, UniProt P0DTC2 319-539)
T1 construct: also called WT RBD
Experiment: ELISA, RBD coated

B1: C981 (antibody, V domains shown)
VH: EVQLVESGGGLVQPGGSLRLSCAASGFTFSNYDMHWVRQVTGNGLEWVAAIGTSGDTYYPDSVKGRFTISRENVKNSLFLQMNSLRAGDTAVYYCARGGSSSWLWYFDLWGRGTLV
VL: DIQMTQSPSSLSASVGDRVTITCRASQSISSHLNWYQQKPGKVPKLLIYAASTLQSGVPSRFSGSGSGTDFTLTISSLQPEDFATYYCQQSYSMPPVTFGQGTRLEIK
notes: IgG; V domains only
Question: For B1, which EC50 is on record?
Answer: Its EC50 is 2.12 ng/mL.

B2: C992 (antibody, V domains shown)
VH: QVQLQESGPGLVKPSQTLSLTCTVSGGSISNGGYFWTWIRQHPVKGLEWIGYIYYSGSPHYNPSLKSRLSISLDTFKNQFSLNLSSVTAADTAVYYCARGDTFGRGYYFDFWGQGTLVTVSS
VL: SYELTQPPSVSVAPGQTARITCGGNNIGTNSMHWYQQKPGQAPVLVVFDDSDRPSGIPERFSGSNSGNTATLTISRVEAGDEADYHCQVWDRSSDRPWVFGGGTKLTVL
notes: IgG; V domains only
Question: For B2, which EC50 is on record?
Answer: Its EC50 is 3.24 ng/mL.

B3: C978 (antibody, V domains shown)
VH: QVQLVQSGAEVKKPGSSVKVSCKASGATFSNYIISWVRQAPGQGLEWMGRTIPLLDIANYAQKFQGRVTITADKSTRIVYMHLGSLTSEDTAVYYCATGKGYSSSSAAYYFDHWGQGTLVTVSS
VL: QSVLTQPPSVSGAPGQRVTISCTGTNSNIGAGYDIHWYQQLPGTAPKLLIYGSNNRPSGVPDRFSGSKSGTSASLAITGLQAEDEADYYCQSYDSSLSGSEVFGGGTKLTVL
notes: IgG; V domains only
Question: With B3 as the binder, how does the EC50 read?
Answer: Its EC50 is 2.09 ng/mL.

B4: C989 (antibody, V domains shown)
VH: QVQLVQSGPEVKKPGSSVKVSCKASGGNFNSYTITWVRQAPGHGLEWMGRIIPTLGVANYALNFQDRITITADKSTSTAYMDLSSLRSEDTAVYYCARETGYSGFLAVAYMDVWGNGTTVTVSS
VL: QSVLTQPPSVSGAPGQRVTISCTGSSSNVGAGYDVHWYQQLPGTAPKLLIYRNNNRPSGVPDRFSGSKSGSSASLDITGLQAEDEADYYCQSYDSSLSDSVFGGGTKLTV
notes: IgG; V domains only
Question: With B4 as the binder, how does the EC50 read?
Answer: Its EC50 is 4.12 ng/mL.

B5: C963 (antibody, V domains shown)
VH: QVQLVQSGAEVKKPGSSVRVSCKASGGTFSSFTITWVRQAPGQGLEWMGRIIPNLNIPNYAQRFQGRITITAEKSTSTAYLELSSLRSEDTAVYYCARGVGYSGSGSNWYFDLWGRGTLVTVSS
VL: B4 VL with V29I, Y51S, R52G, N53H, N54I, K68T, S71T, D76A
notes: IgG; V domains only
Question: How did the EC50 turn out when B5 was run?
Answer: The EC50 was 2.96 ng/mL.

B6: C977 (antibody, V domains shown)
VH: EVQLVESGGGLVQPGGSLRLSCAASGFTFSNYDMHWVRQVTGKGLEWVSLIGTAADAYYADSVKGRFTISRENAKNSLYLQINSLRAGDTAVYFCARGDSSGLYTFFDYWGQGTLVTVSS
VL: DIQMTQSPSSLSASVGDRVTITCRASQSVTRYLNWYQLKPGKAPKLLIYAASSLQSGVPSRFSGSGSGTDFTLTISSLQPEDFATYYCQQSYSTLGLTFGGGTKVEI
notes: IgG; V domains only
Question: How did the EC50 turn out when B6 was run?
Answer: Its EC50 is 2.13 ng/mL.

B7: C976 (antibody, V domains shown)
VH: EVQLVESGGALIQPGGSLRLSCAASGFTVSSNDMTWVRQAPGKGLEWVSVIYTGGGTYHADSAKGRFIISRHNSKNTLSLQMNDLRAEDTAVYYCARLTMTTYYFDSWGQGTLVTVSS
VL: SYELTQPPSVSLAPGQTARITCGGNGIGSKSVHWYQQKPGRAPVLVVYDDSVRPSGTPARFSGANSGNTATLTISRVEAGDEADYYCQVWDSFRDHQDWVFGGGTKLTVL
notes: IgG; V domains only
Question: Which EC50 does the source give for B7 here?
Answer: The EC50 was 2.52 ng/mL.

B8: C969 (antibody, V domains shown)
VH: QVQLQESGPGLVKPSETLSLTCTVSGGSISSYYWSWIRQPPGKGLEWIGYIYYSGSTNYNPSLKSRVTISVDTSKNQFSLKLSSVTAADTAVYYCARLLSTEWLFNWFDPWGQGTLVTVSS
VL: not shown
notes: IgG; V domains only
Question: B8 was tested. Which EC50 did it give?
Answer: The EC50 was 3.49 ng/mL.

B9: C996 (antibody, V domains shown)
VH: EVQLVESGGGLVQPGGSLRLSCVASGFTSTNYDMHWVRQAPGRGLQWVSSIGTAGDTYYPGSVRGRFTISRENAKNSLDLQMNSLRVGDTAVYYCARGQRGYYDRSGYYWGWRAFDIWGQGTMVTVSS
VL: SYELTQPPSVSVAPGQTARITCGGNNIGNKSVYWYQQKPGQAPVLVVYDDSGRPSGIPERFSGSNSANTATLTISRVEAGDEADYYCQVWDNNSDQFGGGTKLTVL
notes: IgG; V domains only
Question: For B9, which EC50 is on record?
Answer: The EC50 was 3.07 ng/mL.

B10: C993 (antibody, V domains shown)
VH: EVQLLESGGGLVQPGGSLRLSCAASGFPFSIYAMSWVRQAPGKGLEWVSGMRGTTGTTYYADSVKGRFAISRDNSKNMLHLQMNSLRAEDTAVYYCAKSDHGDYVIGAFDIWGQGTMVTVSS
VL: QSALTQPPSASGSPGQSVTISCTGTSGDVGGYNYVSWYQQHPGKAPKLMIYEVSKRPSGVPDRFSGSKSGNTASLTVSGLQAEDEADYYCNSYAGSNNWVFGGGTKLTVL
notes: IgG; V domains only
Question: B10 was tested. Which EC50 did it give?
Answer: Its EC50 is 2.29 ng/mL.

B11: C971 (antibody, V domains shown)
VH: EVQLVESGGGLVKPGGSLRLSCAASGFTFNNAWMTWVRQAPGKGLEWVGRIKSKTDGGTTDYGTPAKGRFTISRDDSKNTLYLQMKSLRTEDTAVYYCTTVDVQGIWELLENDAFDIWGQGTMVTVSS
VL: EIVLTQSPGTLSLSPGERATLSCRATQAISSTYLAWYQQKPGQAPRLLIYGAFSRAPGIPDRFSGSGSETDFTLTISRLEPEDFAVYYCQQSDRSPFTFGPGTKVDIK
notes: IgG; V domains only
Question: B11 was tested. Which EC50 did it give?
Answer: The EC50 was 2.21 ng/mL.

B12: C975 (antibody, V domains shown)
VH: EVQLVESGGDLTQPGGSLRLSCAASGFTFSSYDMHWVRQATGKGLEWVSGIGTSGDTYYADSVKGRFTISRENAKNSLFLQMNNLRAGDTATYYCARTEYAWGSYRSYWYFDLWGRGTLVTVSS
VL: DIQMTQSPSSLSASVGDRVTITCRTSQTISTYLNWYQQKPGKAPKVLIYAASSLQSGVPSRFSGSGSGTDFTLTISSLQPEDFATYFCQQSYSAPPWTFGPGTKVEIK
notes: IgG; V domains only
Question: How did the EC50 turn out when B12 was run?
Answer: Its EC50 is 2.88 ng/mL.

B13: C968 (antibody, V domains shown)
VH: QVQLVESGGGVVQPGRSLRLSCAASGFTFRIYAMHWVRQAPGKGLEWVAIIWNDGNKKDYVDSVKGRFTISRDNSRNTVYLQMNSLRVDEDTAVYYCAREGVAVGGNGVDGFDMWGQGTMVTVSS
VL: DIQMTQSPSSLSSSVGDRVTITCRASQSIGIYLNWYQQKPGKVPNLLIYAASTLQTGAPSRFSGSGSGTDFILSISSLQPEDFATYYCQQTYSVPYTFGQGTKLEIK
notes: IgG; V domains only
Question: How did the EC50 turn out when B13 was run?
Answer: Its EC50 is 3.19 ng/mL.

B14: C966 (antibody, V domains shown)
VH: EVQLVESGGGLIQPGGSLRLSCAASGFTFSSYDMHWVRQVTGKGLEWVSAIGTAGDRYYLDSVKGRFTISRENAKNSLHLQMNNLRVGDTAVYYCARASGVLTTHFDSWGRGTLVTVSS
VL: DIQMTQSPSSLSASVGDRVTITCRASQSIGRHLSWHQQKLGKAPKLLIYSASSLQSGVPSRFSGSGSGTDFTLTISSLQPEDFATYYCQQSYETPPWTFGQGTKVEIK
notes: IgG; V domains only
Question: With B14 as the binder, how does the EC50 read?
Answer: The EC50 was 1.97 ng/mL.

B15: C967 (antibody, V domains shown)
VH: QVQLVESGGGVVQPGRSLRLSCAASGFTFRIYAMHWVRQAPGKGLEWVAIIWNDGSKQYYADSMKGRFTISRDNSKNTLYLQMNSLRDEDTALYYCAREGVALAGNGVDGFDIWGQGTMVTVSS
VL: DIQMTQSPSSLSASVGDRVTITCRASQTISTFLNWYRQIPGKAPKLLIYAASSLQSGVPSRFSGSGSGTDFTLTISSLQPEDFATYYCQQTYSTPYTFGRGTKLEIK
notes: IgG; V domains only
Question: Which EC50 does the source give for B15 here?
Answer: Its EC50 is 3.58 ng/mL.

B16: C972 (antibody, V domains shown)
VH: EVQLVESGGGLVQPGGSLRLSCAASEFIVSRNYMSWVRQAPGKGLEWVSLIYPGGSTYYPDSVKGRFTISRDNSKNTLYLQMNSLRGEDTAVYYCARDLGDSRLDYWGQGALVTVSS
VL: DIQLTQSPSFLSASVGDRVTITCRASQGISSYLAWYQQDPGKAPKLLIYAASTLQSGVPSRFSGSGSGTEFTLTISSLQPEDFATYYCQQLDSYPPGYSFGQGTKLEIK
notes: IgG; V domains only
Question: Which EC50 does the source give for B16 here?
Answer: The EC50 was 2.18 ng/mL.

B17: C979 (antibody, V domains shown)
VH: QVQLVESGGGVVQPGRSLRLSCVASGFTFSNYGMHWVRQAPGKGLEWVAVILYDGSDKYYLDSVKGRFTISRDNSKNTLFLQLNSLRAEDTAVYYCAKEGNGYGYQYAGMDVWGQGTTVTVS
VL: QSALTQPASVSGSPGQSITISCTGTNSDVGGYDYVSWYQQHPGKAPKLIIFEVINRPSGVSNRFSGSKSGNTASLTISGLRAEDEADYYCCSYTTSTTRVFGGGTKLTVL
notes: IgG; V domains only
Question: B17 was tested. Which EC50 did it give?
Answer: The EC50 was 2.54 ng/mL.

B18: C987 (antibody, V domains shown)
VH: QVQLQESGPGLVKPSETLSLTCNVSGDIINKYYWSWIRQSPGKGLEWIGYIYYSGTTYYNPSLKSRVTMSVGTSKQQFSLRLTSVTAADTAVYYCARMLSTEWSFNWFDPWGPGTLVTVSS
VL: SYELTQPPSVSVSPGQAASITCSGDKLGDKFACWYQQKPGQSPVLVIYQNDKRPTGIPERFSGSNSGNTATLTISGTQAMDEADYFCQAWDSTSASVFGTGTKVTVL
notes: IgG; V domains only
Question: Which EC50 does the source give for B18 here?
Answer: Its EC50 is 3.11 ng/mL.

B19: C965 (antibody, V domains shown)
VH: EVQLVESGGGLVKPGRSLRLSCSASGFTFGDYAMTWFRQAPGKGLQWVGFIRSKPFGGTTQYAASVKGRFTISRDDSNNVAYLQMNSLKTEDTGVYYCTRLRQVQGVPGYYFDQWGQGALVTVSS
VL: EIVMTQSPATLSVSPGERATLSCRASQSVSSNLAWYQQKPGQAPRLLIYGASIRATGIPARFSGSGSGTEFTLTISSLQSEDFVVYYCQEYDNWFAFGGGTKVEIK
notes: IgG; V domains only
Question: Which EC50 does the source give for B19 here?
Answer: The EC50 was 1.69 ng/mL.

B20: C958 (antibody, V domains shown)
VH: EVQLVQSGAEVKKPGDSLKISCKGSGYSFISHWIAWVRQKPGKGLEWMGIIHPGDSDTRYSPSIQGQVTISADRFITTAYLQWSSLQASDTAMYYCARRGSSWEIDHWGQGTLVTVSS
VL: QSVLTQPPSASGTPGQRVTISCSGSSSNIGSYTVNWYHQVPGTAPKVLIYGNTQRPSGVPDRFSGSKSGTSASLAISGLQSEDEGDYYCAAWDDSLDGWMFGGGTTLTVL
notes: IgG; V domains only
Question: Which EC50 does the source give for B20 here?
Answer: Its EC50 is 4.02 ng/mL.

B21: C990 (antibody, V domains shown)
VH: EVQLVESGGGLVRPGGSLRLSCAASGFTVGSNFMSWVRQAPGKGLEWVSLIYSGGGTHYAESVKGRFTISRDKSKNTLYLQMNSLRAEDTAVYYCANQGYYYYMDVWGKGTTVTVS
VL: QSALTQPASVSGSPGQSITISCTGTSSDVGAYNYVSWHQHHPGKAPKLIIYDVSNRPSGVSNRFSGSKSGNTASLTISGLQAEDEADYYCTSYTNTTTPWVFGGGTKLTVL
notes: IgG; V domains only
Question: For B21, which EC50 is on record?
Answer: The EC50 was 1.92 ng/mL.

B22: C964 (antibody, V domains shown)
VH: EVQLVESGGGLVQPGRSLRLSCAASGFTFDDYGMHWVRQAPGKGLEWVSGISWNSGSIAYAEFVKGRFTISRDNAKNSLYLQMNSLRTEDTALYYCAKAVPTSCYVFCALDIWGQGTMVTVSS
VL: DIQMTQSPSSLSASVGDRVTITCRASQGISNYLAWYQQSPGKVPKLLIYAASTLQSGVPSRFSGSGSGTDFTLTISSLQPEDVATYYCQKYNSGPALTFGGGTKVEIK
notes: IgG; V domains only
Question: How did the EC50 turn out when B22 was run?
Answer: The EC50 was 2.79 ng/mL.
